The series addresses carcinoembryonic antigen (CEA) (UniProt P06731 35-685). Kind of series: agarose gel (displacement of Walker strand from aptamer-Walker duplex); 10 ng/mL CEA; DNA 10 uM; aptamer pre-hybridised to Walker; aptamer-Walker duplex formed in 1x PBS (0.01 M, pH 7.4) at 37 C for 1 h; sensor with 10 mM Mn2+; gel binding buffer not given in the available material. The following applies: protein displaces Walker.

Sequence of carcinoembryonic antigen (CEA) (P06731 35-685): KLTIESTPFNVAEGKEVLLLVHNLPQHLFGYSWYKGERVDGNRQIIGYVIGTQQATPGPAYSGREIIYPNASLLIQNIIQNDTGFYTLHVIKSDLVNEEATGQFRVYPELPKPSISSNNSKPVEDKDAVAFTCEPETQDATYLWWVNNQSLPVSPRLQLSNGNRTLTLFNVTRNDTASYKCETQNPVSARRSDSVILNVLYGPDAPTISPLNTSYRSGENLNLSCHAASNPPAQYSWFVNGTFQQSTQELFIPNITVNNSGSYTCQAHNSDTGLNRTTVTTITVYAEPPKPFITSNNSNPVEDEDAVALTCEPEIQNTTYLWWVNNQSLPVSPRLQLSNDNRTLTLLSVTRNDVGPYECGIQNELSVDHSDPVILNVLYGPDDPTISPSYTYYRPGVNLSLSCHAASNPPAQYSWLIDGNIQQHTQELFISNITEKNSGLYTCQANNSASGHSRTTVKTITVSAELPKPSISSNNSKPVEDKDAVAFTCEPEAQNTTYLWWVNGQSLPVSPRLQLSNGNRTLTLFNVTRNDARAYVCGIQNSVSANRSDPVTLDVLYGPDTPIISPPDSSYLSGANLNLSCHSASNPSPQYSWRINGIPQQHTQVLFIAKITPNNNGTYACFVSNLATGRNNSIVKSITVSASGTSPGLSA

As to ATACCAGCTTATTCAATT (ssDNA) [CEA aptamer], the binding result is “binds”.

These data come from PMC11102226, “Three-dimensional DNA nanomachine biosensor coupled with CRISPR Cas12a cascade amplification for ultrasensitive detection of carcinoembryonic antigen”.
